Reference: patent publication US20100325744A1 (published 2010)

B1: L236V (protein)
chain: ASTKGPSVFPLAPCSRSTSESTAALGCLVKDYFPEPVTVSWNSGALTSGVHTFPAVLQSSGLYSLSSVVTVPSSSLGTKTYTCNVDHKPSNTKVDKRVAPEFLGGPSVFLFPPKPKDTLMISRTPEVTCVVVDVSQEDPEVQFNWYVDGVEVHNAKTKPREEQFNSTYRVVSVLTVLHQDWLNGKEYKCKVSNKGLPSSIEKTISKAKGQPREPQVYTLPPSQEEMTKNQVSLTCVVKGFYPSDIAVEWESNGQPENNYKTTPPVLDSDGSFFLYSRLTVDKSRWQEGNVFSCSVMHEALHNHYTQKSLSLSLGK
B2: Y275A (protein)
chain: ASTKGPSVFPLAPCSRSTSESTAALGCLVKDYFPEPVTVSWNSGALTSGVHTFPAVLQSSGLYSLSSVVTVPSSSLGTKTYTCNVDHKPSNTKVDKRVAPEFLGGPSVFLFPPKPKDTLMISRTPEVTCVVVDVSQEDPEVQFNWYVDGVEVHNAKTKPREEQFNSTYRVVSVLTVLHQDWLNGKEYKCKVSNKGLPSSIEKTISKAKGQPREPQVYTLPPSQEEMTKNQVSLTCLVKGFYPSDIAVEWESNGQPENNYKTTPPVLDSDGSFFLASRLTVDKSRWQEGNVFSCSVMHEALHNHYTQKSLSLSLGK
B3: WT (protein)
chain: ASTKGPSVFPLAPCSRSTSESTAALGCLVKDYFPEPVTVSWNSGALTSGVHTFPAVLQSSGLYSLSSVVTVPSSSLGTKTYTCNVDHKPSNTKVDKRVAPEFLGGPSVFLFPPKPKDTLMISRTPEVTCVVVDVSQEDPEVQFNWYVDGVEVHNAKTKPREEQFNSTYRVVSVLTVLHQDWLNGKEYKCKVSNKGLPSSIEKTISKAKGQPREPQVYTLPPSQEEMTKNQVSLTCLVKGFYPSDIAVEWESNGQPENNYKTTPPVLDSDGSFFLYSRLTVDKSRWQEGNVFSCSVMHEALHNHYTQKSLSLSLGK
B4: F273A (protein)
chain: ASTKGPSVFPLAPCSRSTSESTAALGCLVKDYFPEPVTVSWNSGALTSGVHTFPAVLQSSGLYSLSSVVTVPSSSLGTKTYTCNVDHKPSNTKVDKRVAPEFLGGPSVFLFPPKPKDTLMISRTPEVTCVVVDVSQEDPEVQFNWYVDGVEVHNAKTKPREEQFNSTYRVVSVLTVLHQDWLNGKEYKCKVSNKGLPSSIEKTISKAKGQPREPQVYTLPPSQEEMTKNQVSLTCLVKGFYPSDIAVEWESNGQPENNYKTTPPVLDSDGSFALYSRLTVDKSRWQEGNVFSCSVMHEALHNHYTQKSLSLSLGK

Molecular target: the molecule itself
Assay: monomer to dimer conversion (% monomer vs concentration); self-association

For B1, which EC50 is on record?
The EC50 was 2160 nM.

With B2 as the protein, how does the EC50 read?
The EC50 was 2190 nM.

With B3 as the protein, how does the EC50 read?
Its EC50 is 39 nM.

Which EC50 does the source give for B4 here?
The EC50 was 3060 nM.
